These are literature values, as cited in article PMC12990809.

Holding throughout (assay): pulldown
Common to all, as to conditions: 20 nM protein, 1.5 uM RNA pool; 20 mM HEPES pH 7.8, 70 mM KCl, 10 mM NaCl, 10% glycerol, 2 mM DTT, 0.1 ug/uL BSA; 30 min, 4 C (protocol of this paper; not …); cited from earlier work

The target of data set [1] is T1, cpo (Drosophila melanogaster) (UniProt Q01617).
T1 sequence: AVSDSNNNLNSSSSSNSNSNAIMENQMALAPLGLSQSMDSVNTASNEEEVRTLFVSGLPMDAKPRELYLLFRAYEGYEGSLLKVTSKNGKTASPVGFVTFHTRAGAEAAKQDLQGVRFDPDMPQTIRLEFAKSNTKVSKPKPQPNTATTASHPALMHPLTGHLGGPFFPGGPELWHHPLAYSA

The target of data set [2] is T2, Rbp1-like (Drosophila melanogaster) (UniProt M9MS48).
T2 sequence: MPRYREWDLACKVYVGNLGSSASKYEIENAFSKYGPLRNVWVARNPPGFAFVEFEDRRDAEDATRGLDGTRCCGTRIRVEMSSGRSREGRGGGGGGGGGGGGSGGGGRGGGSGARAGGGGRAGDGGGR

The target of data set [3] is T3, msi (Drosophila melanogaster) (UniProt H9ZJL0).
T3 sequence: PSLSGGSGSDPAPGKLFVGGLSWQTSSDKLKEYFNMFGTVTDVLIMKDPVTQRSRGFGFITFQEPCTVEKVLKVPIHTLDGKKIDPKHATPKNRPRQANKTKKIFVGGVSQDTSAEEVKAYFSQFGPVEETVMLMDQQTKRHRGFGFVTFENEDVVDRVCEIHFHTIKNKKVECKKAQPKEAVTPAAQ

In another data set the target is ZCRB1 (Homo sapiens) (UniProt Q8TBF4).
ZCRB1 (Homo sapiens), sequence (Q8TBF4 1-132): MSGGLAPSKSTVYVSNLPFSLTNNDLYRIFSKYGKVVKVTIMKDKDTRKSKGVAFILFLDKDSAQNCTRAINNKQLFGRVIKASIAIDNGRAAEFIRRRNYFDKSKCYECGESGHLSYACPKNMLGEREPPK
Another data set concerns the target SRSF1 (Homo sapiens) (UniProt Q07955).
Data set [4] has as its target T4, Sxl (Drosophila melanogaster) (UniProt P19339).
T4 sequence: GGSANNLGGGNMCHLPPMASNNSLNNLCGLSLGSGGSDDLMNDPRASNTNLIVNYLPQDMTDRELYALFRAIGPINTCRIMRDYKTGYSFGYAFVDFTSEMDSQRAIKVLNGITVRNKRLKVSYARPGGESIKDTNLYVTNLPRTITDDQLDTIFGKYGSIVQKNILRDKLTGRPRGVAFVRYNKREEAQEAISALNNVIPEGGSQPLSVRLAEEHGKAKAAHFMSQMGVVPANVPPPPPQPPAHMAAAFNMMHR

For data set [5], the target named is T5, A2bp1 (Drosophila melanogaster) (UniProt Q9VT99).
T5 sequence: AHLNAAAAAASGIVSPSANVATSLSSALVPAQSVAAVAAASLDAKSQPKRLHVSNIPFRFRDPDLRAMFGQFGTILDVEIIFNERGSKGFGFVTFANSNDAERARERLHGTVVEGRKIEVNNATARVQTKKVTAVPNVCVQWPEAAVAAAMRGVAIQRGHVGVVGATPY

Data set [6] deals with Rbp9 (Drosophila melanogaster) (UniProt A2RVE5).
Rbp9 (Drosophila melanogaster), sequence (A2RVE5 entry or part of it): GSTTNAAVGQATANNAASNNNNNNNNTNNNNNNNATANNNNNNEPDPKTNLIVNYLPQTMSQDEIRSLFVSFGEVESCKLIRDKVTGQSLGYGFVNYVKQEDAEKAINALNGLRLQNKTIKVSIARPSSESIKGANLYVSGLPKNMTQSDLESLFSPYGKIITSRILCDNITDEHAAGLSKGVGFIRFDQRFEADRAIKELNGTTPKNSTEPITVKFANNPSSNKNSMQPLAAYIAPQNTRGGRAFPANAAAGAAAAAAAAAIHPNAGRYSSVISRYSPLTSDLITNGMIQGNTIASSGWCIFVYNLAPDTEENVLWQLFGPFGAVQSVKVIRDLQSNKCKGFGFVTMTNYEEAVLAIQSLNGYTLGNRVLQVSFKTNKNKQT
Data set [7] concerns the target T6, orb2 (Drosophila melanogaster) (UniProt Q9VSR3).
T6 sequence: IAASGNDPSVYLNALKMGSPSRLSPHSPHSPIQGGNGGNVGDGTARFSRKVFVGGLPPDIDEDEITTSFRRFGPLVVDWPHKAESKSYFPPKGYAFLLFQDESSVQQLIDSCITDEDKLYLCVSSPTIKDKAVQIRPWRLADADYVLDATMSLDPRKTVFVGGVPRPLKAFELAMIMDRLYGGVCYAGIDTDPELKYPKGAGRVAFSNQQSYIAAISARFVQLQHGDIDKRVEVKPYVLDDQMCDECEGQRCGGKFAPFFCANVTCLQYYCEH

Data set [8] deals with Hrb98DE (Drosophila melanogaster) (UniProt P07909).
Hrb98DE (Drosophila melanogaster), sequence (P07909 whole entry): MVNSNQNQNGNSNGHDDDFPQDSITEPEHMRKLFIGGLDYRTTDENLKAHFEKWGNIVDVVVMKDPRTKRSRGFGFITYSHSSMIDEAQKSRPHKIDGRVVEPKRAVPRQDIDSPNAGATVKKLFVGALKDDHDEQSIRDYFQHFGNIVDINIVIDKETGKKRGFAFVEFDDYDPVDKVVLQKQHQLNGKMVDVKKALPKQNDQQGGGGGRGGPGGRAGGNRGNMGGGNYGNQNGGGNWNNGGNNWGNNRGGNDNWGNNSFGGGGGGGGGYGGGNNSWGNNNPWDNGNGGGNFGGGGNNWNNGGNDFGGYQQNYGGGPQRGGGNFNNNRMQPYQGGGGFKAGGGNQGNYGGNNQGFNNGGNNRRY
In data set [9] the target is T7, how (Drosophila melanogaster) (UniProt O01367).
T7 sequence: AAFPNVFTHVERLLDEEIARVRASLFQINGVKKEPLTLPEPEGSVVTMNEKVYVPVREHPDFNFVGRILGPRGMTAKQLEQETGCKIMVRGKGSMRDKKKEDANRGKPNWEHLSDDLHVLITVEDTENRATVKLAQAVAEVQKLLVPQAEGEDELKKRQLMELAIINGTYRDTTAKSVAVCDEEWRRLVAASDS

For data set [10], the target named is T8, elav (Drosophila melanogaster) (UniProt P16914).
T8 sequence: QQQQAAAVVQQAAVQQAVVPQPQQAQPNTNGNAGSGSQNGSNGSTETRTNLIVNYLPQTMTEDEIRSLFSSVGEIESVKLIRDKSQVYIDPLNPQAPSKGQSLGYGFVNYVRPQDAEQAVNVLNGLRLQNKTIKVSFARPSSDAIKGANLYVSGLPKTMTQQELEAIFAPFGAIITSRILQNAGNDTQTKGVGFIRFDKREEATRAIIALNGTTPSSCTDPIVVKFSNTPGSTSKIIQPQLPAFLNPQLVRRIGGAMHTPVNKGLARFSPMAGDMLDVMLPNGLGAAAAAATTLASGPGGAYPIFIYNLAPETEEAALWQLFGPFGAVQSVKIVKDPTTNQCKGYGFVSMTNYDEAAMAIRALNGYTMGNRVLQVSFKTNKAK

Data set [11] has as its target fne (Drosophila melanogaster) (UniProt Q7KIS3).
Data set [12] has as its target T9, Syp G309D (Drosophila melanogaster) (UniProt Q7KSA0).
T9 sequence: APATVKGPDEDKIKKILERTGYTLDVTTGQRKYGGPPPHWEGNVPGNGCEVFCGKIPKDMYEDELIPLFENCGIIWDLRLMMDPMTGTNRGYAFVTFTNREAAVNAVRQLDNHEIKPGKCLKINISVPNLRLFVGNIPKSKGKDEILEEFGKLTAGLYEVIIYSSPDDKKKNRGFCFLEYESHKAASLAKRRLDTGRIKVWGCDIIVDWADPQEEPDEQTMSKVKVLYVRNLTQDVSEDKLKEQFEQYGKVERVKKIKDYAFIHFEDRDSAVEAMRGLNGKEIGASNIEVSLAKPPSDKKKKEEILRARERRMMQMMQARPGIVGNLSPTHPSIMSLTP

The next data set deals with T10, ZC3H10 (Homo sapiens) (UniProt Q96K80).
T10 sequence: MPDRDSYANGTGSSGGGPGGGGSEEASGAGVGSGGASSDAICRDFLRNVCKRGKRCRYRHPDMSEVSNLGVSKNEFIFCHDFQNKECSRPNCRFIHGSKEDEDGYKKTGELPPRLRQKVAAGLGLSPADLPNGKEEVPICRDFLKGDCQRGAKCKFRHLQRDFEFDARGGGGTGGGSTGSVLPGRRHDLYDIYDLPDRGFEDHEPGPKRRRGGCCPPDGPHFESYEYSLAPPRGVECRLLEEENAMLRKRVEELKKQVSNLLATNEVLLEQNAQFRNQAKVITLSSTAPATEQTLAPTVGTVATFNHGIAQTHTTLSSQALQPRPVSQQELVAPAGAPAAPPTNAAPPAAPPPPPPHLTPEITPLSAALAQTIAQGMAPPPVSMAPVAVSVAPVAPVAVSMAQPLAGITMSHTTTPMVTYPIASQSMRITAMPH

In data set [13] the target is T11, bru-3 (Drosophila melanogaster) (UniProt Q7K305).
T11 sequence: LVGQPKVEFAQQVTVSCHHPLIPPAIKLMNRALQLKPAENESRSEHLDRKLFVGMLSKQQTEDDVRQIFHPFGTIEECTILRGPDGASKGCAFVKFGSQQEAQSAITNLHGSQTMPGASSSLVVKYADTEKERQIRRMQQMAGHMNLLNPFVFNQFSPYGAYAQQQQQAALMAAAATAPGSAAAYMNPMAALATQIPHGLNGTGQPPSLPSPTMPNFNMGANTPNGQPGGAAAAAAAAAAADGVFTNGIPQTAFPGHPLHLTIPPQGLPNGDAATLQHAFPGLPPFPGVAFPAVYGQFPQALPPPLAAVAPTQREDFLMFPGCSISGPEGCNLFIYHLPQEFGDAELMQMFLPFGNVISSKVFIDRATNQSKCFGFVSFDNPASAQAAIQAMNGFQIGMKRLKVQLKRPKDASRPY

SRSF1 (Homo sapiens), sequence (Q07955 1-202): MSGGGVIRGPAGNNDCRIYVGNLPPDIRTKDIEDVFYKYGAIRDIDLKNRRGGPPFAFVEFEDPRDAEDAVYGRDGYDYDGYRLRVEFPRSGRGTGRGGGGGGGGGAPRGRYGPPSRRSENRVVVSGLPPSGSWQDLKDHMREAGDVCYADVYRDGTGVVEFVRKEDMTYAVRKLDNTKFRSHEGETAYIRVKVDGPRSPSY
fne (Drosophila melanogaster), sequence (Q7KIS3 entry or part of it): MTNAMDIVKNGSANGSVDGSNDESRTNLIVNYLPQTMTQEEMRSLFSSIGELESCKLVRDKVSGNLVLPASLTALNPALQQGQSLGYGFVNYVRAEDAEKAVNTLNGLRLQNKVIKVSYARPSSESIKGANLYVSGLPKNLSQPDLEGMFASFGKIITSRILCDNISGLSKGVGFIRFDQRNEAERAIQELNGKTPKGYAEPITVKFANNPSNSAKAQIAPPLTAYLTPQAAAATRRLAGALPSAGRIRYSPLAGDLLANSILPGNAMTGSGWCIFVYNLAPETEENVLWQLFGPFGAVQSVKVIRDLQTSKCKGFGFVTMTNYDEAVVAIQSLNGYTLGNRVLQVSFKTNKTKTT

Take AGCAC [RNAcompete motif RNCMPT00133]: the binding signal (z-score (mean of top ten 7-mers)) in data set [1] was 12.9.
Regarding CAUCAUCG [RNAcompete motif RNCMPT00127], the binding signal (z-score (mean of top ten 7-mers)) in data set [2] was 10.7.
Regarding GUAGUU [RNAcompete motif RNCMPT00099], the binding signal (z-score (mean of top ten 7-mers)) in [3] is 11.6.
Consider GAAUUAAG [RNAcompete motif RNCMPT00087], for which the binding signal (z-score (mean of top ten 7-mers)) with ZCRB1 (Homo sapiens) is 12.
For GAGGAGC [RNAcompete motif RNCMPT00163], the binding signal (z-score (mean of top ten 7-mers)) with SRSF1 (Homo sapiens) was 11.3.
For the substance UUUUUUU [RNAcompete motif RNCMPT00119], the binding signal (z-score (mean of top ten 7-mers)) in [4] was 17.2.
Consider UGCAUG [RNAcompete motif RNCMPT00123], for which the binding signal (z-score (mean of top ten 7-mers)) in data set [5] is 21.3.
With UUUNGUU [RNAcompete motif RNCMPT00132], the binding signal (z-score (mean of top ten 7-mers)) in [6] is 15.5.
As to UUUUUUG [RNAcompete motif RNCMPT00126], the binding signal (z-score (mean of top ten 7-mers)) in data set [7] is 15.9.
GGUAGGG [RNAcompete motif RNCMPT00096]: the binding signal (z-score (mean of top ten 7-mers)) in data set [8] was 21.8.
Consider ACUAAC [RNAcompete motif RNCMPT00118], for which the binding signal (z-score (mean of top ten 7-mers)) in [9] was 25.4.
For the substance UUUUUUU [RNAcompete motif RNCMPT00121], the binding signal (z-score (mean of top ten 7-mers)) in data set [10] was 17.2.
UUUUUUU [RNAcompete motif RNCMPT00120]: the binding signal (z-score (mean of top ten 7-mers)) in data set [11] was 12.7.
Take AAAUU [RNAcompete motif RNCMPT00131]: the binding signal (z-score (mean of top ten 7-mers)) in data set [12] was 13.5.
In the case of GCAGCGCG [RNAcompete motif RNCMPT00085], the binding signal (z-score (mean of top ten 7-mers)) in the data set with ZC3H10 (Homo sapiens) is 16.6.
As for GUGUUGU [RNAcompete motif RNCMPT00122], the binding signal (z-score (mean of top ten 7-mers)) in [13] is 20.4.
